Positions of bridges follow the written chain, without caps; N, C: chain ends. Non-standard residues stand in square brackets, D forms with d. No end group written: not given here. *: point of attachment. Acetyl(2-(4-imidazolyl)) = O=C(Cc1c[nH]cn1)*; Aib = CC(C)(N)C(=O)O
T1: human GIP receptor (human, UniProt P48546 22-466)
T1 sequence (looked up): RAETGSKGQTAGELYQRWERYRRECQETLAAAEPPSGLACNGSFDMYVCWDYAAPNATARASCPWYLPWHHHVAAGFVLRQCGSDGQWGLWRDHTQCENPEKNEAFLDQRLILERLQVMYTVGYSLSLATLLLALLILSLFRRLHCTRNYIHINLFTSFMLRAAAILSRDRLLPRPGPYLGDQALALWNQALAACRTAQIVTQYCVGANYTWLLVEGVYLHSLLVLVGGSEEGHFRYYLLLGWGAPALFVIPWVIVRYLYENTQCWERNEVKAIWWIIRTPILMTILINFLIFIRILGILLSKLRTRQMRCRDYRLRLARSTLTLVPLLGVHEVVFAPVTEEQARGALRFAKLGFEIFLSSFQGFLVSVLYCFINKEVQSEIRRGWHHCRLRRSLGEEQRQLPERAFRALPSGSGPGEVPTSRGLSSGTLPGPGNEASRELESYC

B1: triple agonist of SEQ ID NO: 22 (peptide)
peptide: Y[Aib]QGTFTSDYSKCLDEKRAKEFVQWLLDHHPSSGQPPPS
modifications: bridge 16-20
B2: triple agonist of SEQ ID NO: 21 (peptide)
peptide: Y[Aib]QGTFTSDYSKYLDECRAKEFVQWLLDHHPSSGQPPPS
modifications: bridge 16-20
B3: triple agonist of SEQ ID NO: 11 (peptide)
peptide: [Acetyl(2-(4-imidazolyl))]GEGTFTSDLSKYLDSRRQQLFVQWLKAGGPSSGAPPPSHG
B4: triple agonist of SEQ ID NO: 16 (peptide)
peptide: [Acetyl(2-(4-imidazolyl))]GQGTFTSDLSKQMDSEAQQLFIEWLKNGGPSSGAPPPSHG
B5: triple agonist of SEQ ID NO: 31 (peptide)
peptide: H[Aib]QGTFTSDYSKYLDEKACKEFVQWLLAQ
modifications: bridge 16-20
B6: triple agonist of SEQ ID NO: 32 (peptide)
peptide: H[Aib]QGTFTSDYSKYLDEKACKDFVQWLLDGGPSSGAPPPS
modifications: bridge 16-20; also: ring type not given here
B7: triple agonist of SEQ ID NO: 27 (peptide)
peptide: H[Aib]QGTFTSDYSKYLDERACQDFVQWLLDQGGPSSGAPPPS
B8: triple agonist of SEQ ID NO: 26 (peptide)
peptide: H[Aib]QGTFTSDCSKYLDSRAAQDFVQWLLDGGPSSGAPPPS
B9: triple agonist of SEQ ID NO: 28 (peptide)
peptide: H[Aib]QGTFTSDYSKYLDEKRAQEFVCWLLAQKGKKNDWKHNIT
B10: triple agonist of SEQ ID NO: 25 (peptide)
peptide: H[Aib]QGTFTSDCSKYLDERAAQDFVQWLLDGGPSSGAPPPS
B11: triple agonist of SEQ ID NO: 13 (peptide)
peptide: [Acetyl(2-(4-imidazolyl))]GEGTFISDYSIQLDEIAVQDFVEWLLAQKPSSGAPPPSHG
B12: triple agonist of SEQ ID NO: 18 (peptide)
peptide: [Acetyl(2-(4-imidazolyl))]GQGTFTSDLSKQMDSERAREFIEWLKNTGPSSGAPPPSHG
B13: triple agonist of SEQ ID NO: 2 (peptide)
peptide: H[Aib]QGTFTSDVSSYLDGQAQKEFIAWLVKGC
B14: triple agonist of SEQ ID NO: 19 (peptide)
peptide: [Acetyl(2-(4-imidazolyl))]GQGTFTSDLSIQYDSEHQRDFIEWLKDTGPSSGAPPPSHG
B15: triple agonist of SEQ ID NO: 33 (peptide)
peptide: H[Aib]QGTFTSDYSIAMDEIHQKDFVNWLLAQKC
modifications: bridge 16-20; also: ring type not given here
B16: triple agonist of SEQ ID NO: 3 (peptide)
peptide: H[Aib]QGTFTSDVSSYLLGQAAKQFIAWLVKGGGPSSGAPPPSC
B17: triple agonist of SEQ ID NO: 24 (peptide)
peptide: Y[Aib]QGTFTSDYSKYLDECRAKEFVQWLKNGGPSSGAPPPS
modifications: bridge 16-20
B18: triple agonist of SEQ ID NO: 20 (peptide)
peptide: [Acetyl(2-(4-imidazolyl))]GQGTFTSDLSIQYEEEAQQDFVEWLKDTGPSSGAPPPSHG
B19: triple agonist of SEQ ID NO: 30 (peptide)
peptide: H[Aib]QGTFTSDYSKYLDEKAQKEFVQWLLDTC
modifications: bridge 16-20
B20: triple agonist of SEQ ID NO: 17 (peptide)
peptide: [Acetyl(2-(4-imidazolyl))]GQGTFTSDLSKQMDEERAREFIEWLLAQKPSSGAPPPSHG
B21: triple agonist of SEQ ID NO: 12 (peptide)
peptide: [Acetyl(2-(4-imidazolyl))]GEGTFISDLSKYMDEQAVQLFVEWLMAGGPSSGAPPPSHG
B22: triple agonist of SEQ ID NO: 14 (peptide)
peptide: [Acetyl(2-(4-imidazolyl))]GQGTFTSDYSIQLDEIAVRDFVEWLKNGGPSSGAPPPSHG
B23: triple agonist of SEQ ID NO: 23 (peptide)
peptide: Y[Aib]QGTFTSDYSKYLDECRAKEFVQWLLAQKGKKNDWKHNIT
modifications: bridge 16-20
B24: triple agonist of SEQ ID NO: 29 (peptide)
peptide: H[Aib]QGTFTSDYSKYLDEKAAKEFVQWLLNTC
modifications: bridge 16-20

Experiments:
[1] = tested on: IPF mice (C57BL/6 mice treated with BLM); experiment: Lung fibrosis in bleomycin (BLM) mice, Masson's trichrome staining; assay type: in vivo; conditions: BLM 1.5 U/head; 2 weeks; conjugate 3.9 nmol/kg Q2D subcutaneous; pirfenidone 300 mg/kg QD oral; ambroxol 45 mg/kg BID peritoneal; FIG. 5
Description: In order to confirm the in vivo efficacy of the long-acting conjugate of the triple agonist prepared in the above Examples for improving pulmonary fibrosis, particularly idiopathic pulmonary fibrosis (IPF), which is a representative pulmonary fibrosis, bleomycin (BLM) mice were used. It is known that, when bleomycin is administered intratracheally, the epithelial-mesenchymal transition occurs by damaging DNA of alveolar epithelial cells, which induces idiopathic fibrosis. In addition, it is known that when the BLM treatment dose is increased above a certain level, the survival rate of the mice is reduced due to severe lung damage caused by idiopathic fibrosis. […]
IPF mice prepared by treating C57BL/6 mice (ORIENT Bio, Busan, Korea) with BLM at 1.5 U/head were divided into an excipient control group, a long-acting conjugate of triple agonist administration group (3.9 nmol/kg, Q2D, subcutaneous), a pirfenidone administration group (300 mg/kg, QD, oral), and an ambroxol administration group (45 mg/kg, BID, peritoneal), repeated administration was performed for 2 weeks. After 2 weeks of repeated administration, lung tissue of each mouse was taken by autopsy, and the degree of fibrosis in the lung tissue was evaluated by Masson's trichrome staining. Statistical treatment evaluated the efficacy of the long-acting conjugate of the triple agonist using one-way ANOVA (*-***p<0.05-0.001).

human GLP-1 receptor = human GLP-1 receptor (human, UniProt P43220 24-463); experiment: cell-based or functional assay
human GCG receptor = human GCG receptor (human, UniProt P47871 26-477); experiment: cell-based or functional assay
human GIP receptor = molecular target: T1, human GIP receptor; experiment: cell-based or functional assay

Chain of human GCG receptor (P47871 26-477): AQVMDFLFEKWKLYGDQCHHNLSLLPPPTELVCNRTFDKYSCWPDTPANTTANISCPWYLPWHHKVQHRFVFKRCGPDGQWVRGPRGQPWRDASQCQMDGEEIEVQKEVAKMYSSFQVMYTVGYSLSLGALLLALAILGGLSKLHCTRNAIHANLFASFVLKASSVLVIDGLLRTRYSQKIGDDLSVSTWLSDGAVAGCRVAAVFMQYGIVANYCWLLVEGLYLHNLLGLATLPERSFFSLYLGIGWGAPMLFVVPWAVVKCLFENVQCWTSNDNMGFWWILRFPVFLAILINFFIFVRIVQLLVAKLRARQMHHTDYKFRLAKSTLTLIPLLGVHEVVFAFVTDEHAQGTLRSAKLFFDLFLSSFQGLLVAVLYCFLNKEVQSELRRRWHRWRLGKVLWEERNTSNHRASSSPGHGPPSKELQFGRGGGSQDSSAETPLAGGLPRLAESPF

Molecule | positive area of Masson's trichrome staining in the lung tissue (degree of fibrosis) [1] | In vitro Activity Compared to Native Peptide (%) vs. GLP-1 (human GLP-1 receptor) | In vitro Activity Compared to Native Peptide (%) vs. Glucagon (human GCG receptor) | In vitro Activity Compared to Native Peptide (%) vs. GIP (human GIP receptor)
Nc1c(Br)cc(Br)cc1CN[C@H]1CC[C@H](O)CC1 [ambroxol, reference compound] | same level of efficacy as the long-acting conjugate of the triple agonist |  |  | 
B1 |  | 20.1% | 140% | 59.7%
B2 |  | 17.8% | 267% | 22.7%
B3 |  | 1.4% | < 0.1% | < 0.1%
B4 |  | 2.1% | < 0.1% | < 0.1%
B5 |  | 135% | 2.2% | 2.4%
B6 |  | 151% | 1.7% | 8.8%
B7 |  | 83.1% | 0.8% | 0.9%
B8 |  | 64.5% | 0.2% | < 0.1%
B9 |  | 17.2% | 1.6% | < 0.1%
B10 |  | 82.6% | 0.1% | < 0.1%
B11 |  | < 0.1% | < 0.1% | < 0.1%
B12 |  | < 0.1% | < 0.1% | < 0.1%
B13 |  | 5.9% | < 0.1% | < 0.1%
B14 |  | < 0.1% | < 0.1% | < 0.1%
B15 |  | 24.5% | < 0.1% | 10.4%
B16 |  | 1.8% | < 0.1% | < 0.1%
B17 |  | 41.2% | 9.3% | < 0.1%
B18 |  | < 0.1% | < 0.1% | < 0.1%
B19 |  | 142% | 0.7% | 0.8%
B20 |  | 0.2% | < 0.1% | < 0.1%
B21 |  | 0.4% | < 0.1% | < 0.1%
B22 |  | 28% | < 0.1% | < 0.1%
B23 |  | 4.01% | 9.3% | < 0.1%
B24 |  | 38.5% | 6% | < 0.1%
